Experiments:
[1] = system: bacterial adenylate kinase; experiment: AK reduction by different proteases over time for different organisms; type: biochemical; details: 37° C., 10 to 120 minutes; trypsin 1000, papain 10, proteinase K 2.5, chymotrypsin 1 U/ml
Description: • 1. Bacteria were scraped from plates and inoculated in approximately 20 ml of broth only. These were incubated overnight at 37° C. • 2. 10× stocks of the enzymes were prepared in broth only: • a. 10 mg of 16,000 U/mg Trypsin added to 16 ml of broth to give 10,000 U/ml (10×) stock. • b. 25 mg of 4 U/mg Papain added to 1 ml of broth to give 100 U/ml (10×) stock. • c. 10 mg of 7.5 U/mg proteinase K added to 3 ml of broth to give a 25 U/ml (10×) stock. • d. 10.5 ul of 239 U/ml chymotrypsin added to 239.5 ul of broth to give a 10 U/ml stock. • 3. The inoculums were then centrifuged at approximately 14030 RCF for one hour. • 4. The supernatant was then taken, tested for adenylate kinase activity (described below), and diluted with broth only if needed to give about 10^5 cpm/ml. • 5. The supernatant was then assayed for adenylate kinase activity at time point zero in triplicate and averaged. • 6. 1.5 ml solutions of the supernatants were prepared with the correct concentration of enzyme, or broth for control. These were incubated at 37° C. • 7. Samples were then taken and assayed in triplicate for adenylate kinase activity at 10, 30, 60 and 120 minutes. • 8. The triplicates were averaged, and normalised by dividing by the time point zero average. Adenylate Kinase Assay (AK Only No Cells) • 1. […] added to a cuvette. • 2. 50 μl of reagent 1 (ADP only; no lysis agent) added and vortexed briefly. • 3. After 5 minutes, the cuvette was placed into a luminometer. • 4. 50 μl of reagent 2 (dilution and luciferin/luciferase) firmly added directly to the sample. • 5. RLU read immediately.
The results are shown in FIG. 19 (S. epidermis), 20 (S. aureus), 21 (E. coli), 22 (E. faecalis), 23 (P. aeruginosa) and 24 (MRSA). Trypsin is still the protease of choice due to its consistency with both Gram +ve and Gram −ve bacteria.

[2] = biological target: bioluminescent system (luciferin/luciferase) (Photinus pyralis, UniProt P08659); experiment: Trypsin control: effect of trypsin on the bioluminescent system; type: biochemical
Description: (§1) Experimental work used adenylate kinase-generated ATP to drive a luciferin/luciferase activity, giving results in RLUs as a quantitative measure of initial ATP levels. All AK assays were performed at pH 7.5, and 37° C. Results of the assay were read at ambient temperature.
In preliminary experiments, the effect of trypsin on the bioluminescent system was assessed. Samples of trypsin at different concentrations, diluted in Mueller-Hinton (MH^+) broth, were spiked with ATP.

[3] = system: lysed blood AK background; experiment: Lysed blood background with trypsin, negative (no organisms); type: biochemical; details: 10^−1 lysed blood, 1000 U/ml trypsin
Description: (§2) Approximately 10^2 cfu/ml organisms were spiked into a 10^−1 dilution of lysed blood in MH, containing 1000 U/ml trypsin. This was incubated at 37° C. for 4 hours, and aliquots were assayed at time 0, 1, 2, 3 and 4 hours.

[4] = system: AK in saponin-lysed blood; experiment: Trypsin digestion of AK in various concentrations of lysed blood; type: biochemical; details: 1000 U/ml trypsin
Description: Saponin-lysed blood was serially diluted and mixed with 1000 or 200 U/ml trypsin/MH. The mixtures were incubated at 37° C. for 4 hours, and aliquots assayed at time 0, 1, 2, 3 and 4 hours.

[5] = biological target: Purified AK (B. stearothermophilus) (Geobacillus stearothermophilus, UniProt P27142); experiment: AK reduction by trypsin over time, purified bacterial AK; type: biochemical; details: 5000, 1000, 200 U/ml trypsin, 37° C., up to 1 hour; compared with lysed blood AK
Description: (§3) Purified AK (B. stearothermophilus) or a 10^−3 dilution of saponin-lysed blood was incubated for 1 hour at 37° C. in 5000, 1000, 200 and 0 (control) U/ml trypsin diluted in MH broth (‘trypsin/MH’). Aliquots were assayed at time 0, 15 minutes, 30 minutes and 1 hour.

[6] = system: AK in lysed blood; experiment: AK reduction by trypsin over time, saponin-lysed blood; type: biochemical; details: 10^−3 dilution of lysed blood, 5000, 1000, 200 U/ml trypsin, 37° C., up to 1 hour
Description: as §3

[7] = system: P. aeruginosa; experiment: Organism growth against lysed blood background using trypsin, P. aeruginosa; type: cell-based; details: P. aeruginosa 10^2 cfu/ml, 10^−1 lysed blood, 1000 U/ml trypsin
Description: as §2

[8] = system: organisms (11 species); experiment: Effect of trypsin on organisms (bacterial growth); type: cell-based; details: trypsin 1000 and 200 U/ml, 10^3 cfu/ml, 37° C., 3 hours
Description: FIGS. 4 to 14 show bacterial growth in the presence of AK. Bacteria were: (4) E. coli; (5) E. faecalis; (6) P. aeruginosa; (7) S. aureus; (8) K. pneumoniae; (9) E. cloacae; (10) K. oxytoca; (11) P. vulgaris; (12) A. baumanii; (13) S. enteritidis; and (14) S. narcescens.
To assess whether trypsin affects bacterial growth, 10^3 cfu/ml organisms were spiked into 1000, 200 and 0 (control) U/ml trypsin/MH samples. These mixtures were incubated at 37° C. for 3 hours, and aliquots were assayed at time 0, 1, 2 and 3 hours.

[9] = system: E. coli; experiment: Trypsin digestion of intracellular bacterial AK, E. coli; type: cell-based; details: for Mean RLU: assayed immediately
Description: as §1
(§4) Concentrations of 10^4 and 10^5 cfu/ml E. coli and E. faecalis where spiked into MH broth containing 1000, 200 and 0 (control) U/ml trypsin. These were assayed immediately.

[10] = system: E. faecalis; experiment: Organism growth against lysed blood background using trypsin, E. faecalis; type: cell-based; details: E. faecalis 10^2 cfu/ml, 10^−1 lysed blood, 1000 U/ml trypsin
Description: as §2

[11] = system: E. faecalis; experiment: Trypsin digestion of intracellular bacterial AK, E. faecalis; type: cell-based; details: assayed immediately
Description: as §1, §4

[12] = system: E. coli; experiment: Organism growth against lysed blood background using trypsin, E. coli; type: cell-based; details: E. coli 10^2 cfu/ml, 10^−1 lysed blood, 1000 U/ml trypsin
Description: as §2

Sequence of bioluminescent system (luciferin/luciferase) (P08659 whole entry): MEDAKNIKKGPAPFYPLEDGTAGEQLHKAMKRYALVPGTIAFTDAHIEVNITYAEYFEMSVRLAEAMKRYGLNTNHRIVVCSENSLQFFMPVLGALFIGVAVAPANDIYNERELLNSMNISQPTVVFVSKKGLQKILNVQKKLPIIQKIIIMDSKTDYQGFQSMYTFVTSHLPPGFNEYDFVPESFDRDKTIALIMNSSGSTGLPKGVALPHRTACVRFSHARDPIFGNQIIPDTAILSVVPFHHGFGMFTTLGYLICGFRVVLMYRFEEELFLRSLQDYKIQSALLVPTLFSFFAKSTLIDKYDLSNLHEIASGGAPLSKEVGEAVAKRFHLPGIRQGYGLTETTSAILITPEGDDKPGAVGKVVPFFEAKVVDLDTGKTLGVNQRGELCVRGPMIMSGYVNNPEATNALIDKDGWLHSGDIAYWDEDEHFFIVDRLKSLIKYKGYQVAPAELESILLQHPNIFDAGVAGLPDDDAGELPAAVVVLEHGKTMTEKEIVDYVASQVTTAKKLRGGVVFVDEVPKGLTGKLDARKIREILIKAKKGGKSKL
Sequence of Purified AK (B. stearothermophilus) (P27142 whole entry): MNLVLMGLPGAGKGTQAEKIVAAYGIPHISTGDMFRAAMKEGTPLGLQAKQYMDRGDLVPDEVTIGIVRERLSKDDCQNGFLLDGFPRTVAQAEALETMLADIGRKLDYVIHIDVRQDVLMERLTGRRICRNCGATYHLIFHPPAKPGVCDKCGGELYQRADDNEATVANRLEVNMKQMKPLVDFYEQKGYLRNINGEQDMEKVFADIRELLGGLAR

B1: Papain (protein, UniProt P00784 134-345, looked up)
Papain: IPEYVDWRQKGAVTPVKNQGSCGSCWAFSAVVTIEGIIKIRTGNLNEYSEQELLDCDRRSYGCNGGYPWSALQLVAQYGIHYRNTYPYEGVQRYCRSREKGPYAAKTDGVRQVQPYNEGALLYSIANQPVSVVLEAAGKDFQLYRGGIFVGPCGNKVDHAVAAVGYGPNYILIKNSWGTGWGENGYIRIKRGTGNSYGVCGLYTSSFYPVKN
notes: protease, 4 U/mg, used at 10 U/ml
- degradation of AK extracted from different organisms [1]: degraded the AK in a similar manner to trypsin

B2: proteinase K (protein, UniProt P06873 106-384, looked up)
Proteinase K: AAQTNAPWGLARISSTSPGTSTYYYDESAGQGSCVYVIDTGIEASHPEFEGRAQMVKTYYYSSRDGNGHGTHCAGTVGSRTYGVAKKTQLFGVKVLDDNGSGQYSTIIAGMDFVASDKNNRNCPKGVVASLSLGGGYSSSVNSAAARLQSSGVMVAVAAGNNNADARNYSPASEPSVCTVGASDRYDRRSSFSNYGSVLDIFGPGTSILSTWIGGSTRSISGTSMATPHVAGLAAYLMTLGKTTAASACRYIADTANKGDLSNIPFGTVNLLAYNNYQA
notes: protease, 7.5 U/mg, used at 2.5 U/ml
- degradation of AK extracted from different organisms [1]: degraded the AK in a similar manner to trypsin

B3: trypsin (protein, UniProt P00761 9-231, looked up)
Trypsin: IVGGYTCAANSIPYQVSLNSGSHFCGGSLINSQWVVSAAHCYKSRIQVRLGEHNIDVLEGNEQFINAAKIITHPNFNGNTLDNDIMLIKLSSPATLNSRVATVSLPRSCAAAGTECLISGWGNTKSSGSSYPSLLQCLKAPVLSDSSCKSSYPGQITGNMICVGFLEGGKDSCQGDSGGPVVCNGQLQGIVSWGYGCAQKNKPGVYTKVCNYVNWIQQTIAAN
- Mean RLU ([2]; +ATP, trypsin 200 U/ml in MH broth): 68,036 RLU
- Mean RLU ([2]; +ATP, trypsin 1000 U/ml in MH broth): 64,005 RLU
- Mean RLU ([2]; +ATP, trypsin 5000 U/ml in MH broth): 81,276 RLU
- Mean RLU ([2]; No ATP, trypsin 200 U/ml in MH broth): 646 RLU
- Mean RLU ([2]; No ATP, trypsin 1000 U/ml in MH broth): 538 RLU
- Mean RLU ([2]; No ATP, trypsin 5000 U/ml in MH broth): 414 RLU
- background ATP-generating activity associated with trypsin ([2]; no ATP): little or no background ATP-generating activity
- effect on bioluminescence signal ([2]; trypsin 5000 U/ml): boosted
- effect on the bioluminescence reaction ([2]; trypsin levels ≦1000 U/ml): minimal/no effect on the bioluminescence reaction
- Mean RLU ([3]; 1 hr): 7,864 RLU
- Mean RLU ([3]; 2 hrs): 3,148 RLU
- Mean RLU ([3]; 3 hrs): 2,001 RLU
- Mean RLU ([3]; 4 hrs): 1,572 RLU
- Mean RLU ([3]; Time 0): overload
- degradation of AK extracted from different organisms [1]: degraded the AK
- reduction of background ([4]; 10^−1 dilution of blood, 4 hours): 25,000 fold
- background RLU after trypsin digestion ([4]; 10^−1 dilution of blood, 4 hours, from approximately 100 million RLU): 4,000 RLU
- time in which the vast majority of AK digestion occurs [4]: ≤ 2 h
- degradation of purified bacterial AK by trypsin [5]: does not occur as dramatically or rapidly as the AK from lysed blood
- digestion of AK in lysed blood by trypsin [6]: digested rapidly
- Mean RLU ([7]; 1 hr): 8,852 RLU
- Mean RLU ([7]; 2 hrs): 3,582 RLU
- Mean RLU ([7]; 3 hrs): 3,332 RLU
- Mean RLU ([7]; 4 hrs): 8,123 RLU
- Mean RLU ([7]; Time 0): overload
- effect on bacterial growth [8]: minimal (if any) effect on the organisms
- Mean RLU ([9]; E. coli 10^4 cfu/ml, trypsin 200 U/ml): 7,197 RLU
- Mean RLU ([9]; E. coli 10^4 cfu/ml, trypsin 1000 U/ml): 12,694 RLU
- Mean RLU ([9]; E. coli 10^5 cfu/ml, trypsin 200 U/ml): 65,452 RLU
- Mean RLU ([9]; E. coli 10^5 cfu/ml, trypsin 1000 U/ml): 106,552 RLU
- AK signal from lysed bacteria lost during the AK reaction due to trypsin digestion ([9]; E. coli and E. faecalis, trypsin 200 and 1000 U/ml): 10-20%
- Mean RLU ([10]; 1 hr): 10,099 RLU
- Mean RLU ([10]; 2 hrs): 4,939 RLU
- Mean RLU ([10]; 3 hrs): 15,587 RLU
- Mean RLU ([10]; 4 hrs): 106,762 RLU
- Mean RLU ([10]; Time 0): overload
- Mean RLU ([11]; E. faecalis 10^4 cfu/ml, trypsin 200 U/ml): 13,310 RLU
- Mean RLU ([11]; E. faecalis 10^4 cfu/ml, trypsin 1000 U/ml): 17,369 RLU
- Mean RLU ([11]; E. faecalis 10^5 cfu/ml, trypsin 200 U/ml): 87,059 RLU
- Mean RLU ([11]; E. faecalis 10^5 cfu/ml, trypsin 1000 U/ml): 103,959 RLU
- Mean RLU ([12]; 1 hr): 9,605 RLU
- Mean RLU ([12]; 2 hrs): 7,460 RLU
- Mean RLU ([12]; 3 hrs): 41,121 RLU
- Mean RLU ([12]; 4 hrs): 353,541 RLU
- Mean RLU ([12]; Time 0): overload

From patent publication US8349583B2, “Distinguishing cells in a sample by inactivating extracellular enzyme before releasing intracellular enzyme” (priority 2005, dated 2013)
